The target of the experiment is T1, PITPNM3 (Homo sapiens, UniProt Q9BZ71).
T1 chain: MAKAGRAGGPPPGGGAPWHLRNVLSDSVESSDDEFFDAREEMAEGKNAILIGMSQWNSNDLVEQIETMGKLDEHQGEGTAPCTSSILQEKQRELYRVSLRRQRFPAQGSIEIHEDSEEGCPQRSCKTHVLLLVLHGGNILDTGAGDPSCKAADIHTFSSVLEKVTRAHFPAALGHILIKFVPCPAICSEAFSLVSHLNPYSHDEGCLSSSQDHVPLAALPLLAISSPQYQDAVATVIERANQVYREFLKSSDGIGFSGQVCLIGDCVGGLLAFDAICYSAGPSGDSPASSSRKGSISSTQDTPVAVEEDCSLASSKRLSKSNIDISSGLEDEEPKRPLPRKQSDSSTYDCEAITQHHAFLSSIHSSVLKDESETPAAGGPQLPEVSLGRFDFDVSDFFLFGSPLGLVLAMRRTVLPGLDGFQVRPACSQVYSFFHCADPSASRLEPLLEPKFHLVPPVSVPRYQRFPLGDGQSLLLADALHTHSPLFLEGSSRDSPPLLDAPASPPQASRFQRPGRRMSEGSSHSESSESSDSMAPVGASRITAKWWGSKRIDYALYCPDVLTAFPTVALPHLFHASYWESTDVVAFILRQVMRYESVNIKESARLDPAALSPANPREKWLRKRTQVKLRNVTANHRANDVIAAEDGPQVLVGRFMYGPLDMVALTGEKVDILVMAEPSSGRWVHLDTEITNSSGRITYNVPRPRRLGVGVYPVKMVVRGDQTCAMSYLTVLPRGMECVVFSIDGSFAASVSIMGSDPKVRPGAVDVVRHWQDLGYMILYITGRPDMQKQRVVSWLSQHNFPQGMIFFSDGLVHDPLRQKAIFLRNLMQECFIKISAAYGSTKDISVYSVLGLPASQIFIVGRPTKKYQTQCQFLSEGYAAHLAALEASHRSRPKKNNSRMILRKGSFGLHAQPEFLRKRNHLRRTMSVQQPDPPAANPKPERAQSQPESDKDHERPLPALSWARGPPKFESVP
Put plainly: 125I-CCL18 radioligand competition binding on PITPNM3-transfected HEK293 cells. Background: Loss of bound radioactivity is the signal in a displacement assay; it reports binding, not function.

B1: CCL4 (protein)
chain: APMGSDPPTACCFSYTARKLPRNFVVDYYETSSLCSQPAVVFQTKRSKQVCADPSESWVQEYVYDLELN
The Kd is the free concentration of one partner at which half of the binding sites on the other are occupied at equilibrium, for simple one-to-one binding. Read a high Kd as weaker binding. For the molecule B1, binding was put at a Kd of 833 nM.

B2: CCL18 (protein)
chain: GTNKELCCLVYTSWQIPQKFIVDYSETSPQCPKPGVILLTKRGRQICADPNKKWVQKYISDLKLNA
With B2, the Kd was determined as 5.17 nM.

B3: CCL3 (protein)
chain: SLAADTPTACCFSYTSRQIPQNFIADYFETSSQCSKPGVIFLTKRSRQVCADPSEEWVQKYVSDLELSA
For B3, the Kd came to 277 nM.

For the origin of these results see article PMC3107500 (2011).
